The values below come from patent US7026125, “Heterodimers of retinoid X receptors (RXRS) and other steroid hormone receptors” (Ligand Pharmaceuticals).

The target of data set [1] is T1, RARα (Homo sapiens, UniProt P10276 P10276:1-462).
T1 sequence: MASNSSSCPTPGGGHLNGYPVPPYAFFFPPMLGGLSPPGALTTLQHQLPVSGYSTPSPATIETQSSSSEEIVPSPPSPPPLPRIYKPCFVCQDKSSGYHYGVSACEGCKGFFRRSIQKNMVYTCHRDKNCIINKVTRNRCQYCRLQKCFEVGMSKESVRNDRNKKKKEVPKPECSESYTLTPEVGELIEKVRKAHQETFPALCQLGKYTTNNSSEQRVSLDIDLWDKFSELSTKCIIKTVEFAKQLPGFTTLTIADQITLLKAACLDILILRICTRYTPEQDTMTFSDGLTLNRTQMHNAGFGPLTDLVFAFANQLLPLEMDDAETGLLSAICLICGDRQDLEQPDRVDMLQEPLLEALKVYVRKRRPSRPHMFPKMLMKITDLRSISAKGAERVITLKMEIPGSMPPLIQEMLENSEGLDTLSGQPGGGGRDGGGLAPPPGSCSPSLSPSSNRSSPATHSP
The data set can be described thus: EMSA; no detectable complex under conditions used. Particulars: label: 32P. The protocol:
(§1) (a) In vitro synthesized TRα, TRβ, RARα, RARβ, RARγ and TRα2 receptor proteins were preincubated either with (+) or without (−) equal amount of in vitro synthesized RXRα protein at room temperature for 10 minutes. Following this preincubation, the reaction mixtures were incubated with ^32p-labelled palindromic TRE (for 1 sequence see FIG. 2a) and analyzed by gel retardation assay as described in Experimental Procedures. […] As a control, equal amounts of TRα and RARα proteins were also mixed and incubated with labelled TRE.
(§2) In vitro translated receptor protein (1 to 5 μl depending on the translation efficiency) was incubated with the ^32P-labeled oligonucleotides in a 20-μl reaction mixture containing 10 mM hepes buffer, pH 7.9, 50 mM KCl, 1 mM DTT, 2.5 mM MgCl, 10% glycerol, and 1 μg of poly(dI-dC) at 25° C. for 20 minutes. In general, relative low receptor concentration was used to obtain the clear effect of heterodimer formation. The reaction mixture was then loaded on a 5% nondenaturing ployacrylamide gel containing 0.5×TBE (1×TBE=0.089 M Tris-borate, 0.089 M boric acid, and 0.002 M EDTA). To analyze the effect of RXRα or the nuclear proteins on receptor DNA binding activity, RXRα or the cell extracts were preincubated with receptor protein at room temperature for 10 minutes before performing the DNA binding assay. When antibody was used, 1 μl of the antiserum was incubated with the specific translation products at room temperature for 45 minutes before performing the experiments described above.
Background: In EMSA bound probe runs differently from free probe, usually more slowly.

Data set [2] has as its target T2, RARβ (UniProt P10826-2 P10826-2:1-448).
T2 sequence: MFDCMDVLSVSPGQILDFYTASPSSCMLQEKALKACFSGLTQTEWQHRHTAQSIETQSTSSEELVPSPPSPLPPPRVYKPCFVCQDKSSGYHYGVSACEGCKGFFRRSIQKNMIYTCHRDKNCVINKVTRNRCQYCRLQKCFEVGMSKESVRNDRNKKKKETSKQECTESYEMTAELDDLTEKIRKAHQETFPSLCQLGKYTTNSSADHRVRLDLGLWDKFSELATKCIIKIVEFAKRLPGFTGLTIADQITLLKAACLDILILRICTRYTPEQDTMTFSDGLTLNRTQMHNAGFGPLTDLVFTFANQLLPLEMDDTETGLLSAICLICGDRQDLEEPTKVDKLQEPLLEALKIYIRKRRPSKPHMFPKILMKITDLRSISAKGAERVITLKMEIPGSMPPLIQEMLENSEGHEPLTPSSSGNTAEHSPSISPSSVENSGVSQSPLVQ
Briefly: EMSA; no detectable complex under conditions used. The following applies: label: 32P. The protocol: as §1, §2

B1: palindromic TRE (dsDNA)
DNA 1: GATCTCAGGTCATGACCTGAGATC
DNA 2: GATCTCAGGTCATGACCTGAGATC
Consider B1, for which the binding result in data set [1] and in data set [2] was “no binding” in each case.
